Assay results: patent publication US20200157194A1 (Regeneron, published 2020)
Substitutions are numbered along the chain they refer to.

T1: recombinant human GREM1 (hGREM1-His; C-terminal 10His tagged, R&D, #5190-GR) (human, UniProt O60565 25-184, limits assumed)
T1 sequence: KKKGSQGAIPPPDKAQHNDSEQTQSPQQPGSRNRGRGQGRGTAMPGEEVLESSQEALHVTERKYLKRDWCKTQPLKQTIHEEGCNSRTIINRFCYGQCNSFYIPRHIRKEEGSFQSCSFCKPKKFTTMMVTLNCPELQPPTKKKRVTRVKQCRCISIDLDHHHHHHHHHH

T2: human GREM1 (hGREM1-His; SEQ ID NO: 595) (human, UniProt O60565 25-184)
T2 construct: also called biotin-hGREM1-His; recombinant human GREM1 protein
T2 sequence: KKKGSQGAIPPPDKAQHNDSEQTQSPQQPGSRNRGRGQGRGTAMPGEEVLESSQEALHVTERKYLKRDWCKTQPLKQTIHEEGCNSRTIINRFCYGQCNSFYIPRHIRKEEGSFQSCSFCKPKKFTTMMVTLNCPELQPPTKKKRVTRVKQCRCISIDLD

B1: H2bM2785N (antibody, mouse IgG2, V domains shown)
VH: EVQLLESGGGLVQPGGSLRLSCAASGFTFSSYVMNWVRQAPGKGLEWVSAISGSGGSTSYADSVKGRSTISRDNSKNTLYLQMNSLRAEDTAVYYCAKGDIAAIVFDAFDIWGQGTMVTVSS
VL: DIQMTQSPSSLSASVGDRVTITCQASQDISNCLNWYQHKPGKAPKLLIYDASYLETGGPSRFSGSGSGTDFTFTIRSLQPEDFATYYCQQYDNLPYTFGQGTKLEIK
B2: H2bM2890N (antibody, mouse IgG2, V domains shown)
VH: QVQLVESGGGVVQPGRSLRLTCAASGFTFSSFGMHWVRQAPGKGLEWVAIIWYDGSNKYYADSVKGRFTISRDNSKNTLYLQMNSLRAEDTAVYYCAREDNWTRDYFDYWGQGTLVTVSS
VL: EIVLTQSPATLSLSPGERATLSCRASQSVSNFLAWYQQKPGQAPRLLIYDASNRATGIPARFSGSGSGTDFTLTISSLEPEDFAVYYCQQRSNWPPLPFGGGTKVEIK
notes: H2M prefix = mouse IgG2 Fc (here H2bM); also called H2M2890N
B3: H2aM2899N (antibody, mouse IgG2, V domains shown)
VH: QVQLVQSGAEVKKPGASVKVSCKASGFTFTSYDINWVRQATGQGLEWMGWMNPKSGNTDYAQKFLGRVTLTRNTSKSTAYMELSSLRSEDTAVYYCARGKQLVFDYWGQGTLVTVSA
VL: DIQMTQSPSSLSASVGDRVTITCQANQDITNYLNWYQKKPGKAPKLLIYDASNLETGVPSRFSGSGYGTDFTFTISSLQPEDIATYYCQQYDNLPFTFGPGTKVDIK
notes: H2M prefix = mouse IgG2 Fc (here H2aM); also called H2M2899N
B4: H2bM2891N (antibody, mouse IgG2, V domains shown)
VH: EVQMVESGGGLVQPGGSLRLSCAASRFTLSNYWMGWVRQAPGKGLEWVANIKQDGSEKYYVDSVRGRFTISRDNAKNSLYLQMNSLRAEDTAVYYCARDYDFWRSFDYWGQGTLVTVPS
VL: DIQMTQSPSSVSASVGDRVTITCRASQGVSSWLAWYQQTPGKAPKLLIYVVSSLQSGVPSRFSGSGSGTDFTLTINSLQPEDFATYYCQQGNSFPYTFGQGTKLEIK
notes: H2M prefix = mouse IgG2 Fc (here H2bM); also called H2M2891N
B5: H2bM2906N (antibody, mouse IgG2, V domains shown)
VH: B4 VH with R26G, P118S
VL: B4 VL with T39K, A43T, S65R
notes: H2M prefix = mouse IgG2 Fc (here H2bM); also called H2M2906N
B6: H2aM2898N (antibody, mouse IgG2, V domains shown)
VH: EVQLVESGGGLVQPGGSLRLSCAASGFTFSIYDMHWVRQATGKGLEWVSGIGNAGDTYYAGSVKGRFTISRENAKNSLYLQMNSLRAGDTAVYYCAREGPNYYYYGMDVWGQGTTVTVSS
VL: AIQMTQSPSSLSASVGDRVTITCRASQGIRDDLGWYQQKPGKAPKLLIYAASSLQSGVPSRFSGSGSGTDFTLTISSLQPEDFATYYCLQDYNYPWTFGQGTKVEIK
notes: H2M prefix = mouse IgG2 Fc (here H2aM); also called H2M2898N
B7: H4H6260P (antibody, human IgG4, V domains shown)
VH: QVQLVESGGGVVQPGRSLRLSCAASGFTFSTYGMHWVRQAPGKGLEWVAIIWYDGSNYYYADSVKGRFTISRDNSKNTLYLQMNSLRAEDTAVYYCAREDRNDVFDIWGQGTMVTVSS
VL: B2 VL with N31S, A51S, R91L, L97I, P98T, G101Q, K104R, V105L
notes: H4H prefix = human IgG4 Fc
B8: H4H6248P (antibody, human IgG4, V domains shown)
VH: QVQLVESGGGVVQPGRSLRLSCAASGFTFSNYGMHWVRQVPGKGLEWVAVIWYDGSNKYYADSVKGRFTISRDNSKNTLYLQMNSVRAEDTAVYYCARDDYGDSPGFDYWGQGTLVTVSS
VL: EIVMTQSPATLSVSPGERATLSCRASQSVSSSLAWYQQKPGQAPRLLIYDASTRATGIPARFSGSGSGTEFTLTISGLQSEDFAVYYCQQYNNWPPWTFGQGTKVEIK
notes: H4H prefix = human IgG4 Fc
B9: H4H6270P (antibody, human IgG4, V domains shown)
VH: QVQLVESGGDVVQPGRSLRLSCAASGFTFSSYGMHWVRQAPGKGLEWVAIIWNDGSNKYYTDSVKGRFTISRDNSKNTLYLQMNGLRAEDTAIYYCARDQDQFDYWGQGTLVTVSS
VL: B8 VL with V29I, S31T, S32N, Q37R, E70D, G77S, N92S, W97Y, V105L
notes: H4H prefix = human IgG4 Fc
B10: H4H6251P (antibody, human IgG4, V domains shown)
VH: B8 VH with R16K, N31R, V40A, V86L, E89D, V93M, Y109F
VL: B8 VL with S32N, S65T, G77S, V85L, N92D, N93D
notes: H4H prefix = human IgG4 Fc
B11: H4H6256P (antibody, human IgG4, V domains shown)
VH: B8 VH with N31A, V40G, S85R, V86L, Y109H
VL: B8 VL with S32E, I48L, D50G, G77S, N92S
notes: H4H prefix = human IgG4 Fc

Biological target: T1, recombinant human GREM1 (hGREM1-His; …)
Test: cell-based or functional assay

| IC50 [M], inhibition of hGREM1-His, W-20-17/BRE-luc luciferase (200 pM hBMP4, 20 nM hGREM1-His) | IC50 [M], inhibition of hGREM1-His, W-20-17/BRE-luc luciferase (100 pM hBMP4, 10 nM hGREM1-His) | Binder |
| --- | --- | --- |
| 2.7e-08 M |  | B1 |
|  | 2.1e-09 M | B2 |
|  | 2.1e-09 M | B3 |
|  | 1.1e-09 M | B4 |
|  | 1.6e-09 M | B5 |
|  | 1.4e-09 M | B6 |

Biological target: T1, recombinant human GREM1 (hGREM1-His; …)
Test: cell-based or functional assay
Remark: another data set of the same source

| IC50 [M], inhibition of hGREM1-His, W-20-17/BRE-luc luciferase (100 pM hBMP4, 10 nM hGREM1-His) | Binder |
| --- | --- |
| 4.6e-10 M | B7 |
| 5.3e-10 M | B8 |
| 5.4e-10 M | B9 |
| 6.3e-10 M | B10 |
| 5.4e-10 M | B11 |

Biological target: T1, recombinant human GREM1 (hGREM1-His; …)
Test: cell-based or functional assay
Remark: another data set of the same source

| hGREM1-His Inhibition IC50, M; W-20-17 cell differentiation assay (alkaline phosphatase) | Binder |
| --- | --- |
| 3.3 nM | B7 |
| 5.6 nM | B8 |
| 3.1 nM | B9 |
| 11 nM | B10 |
| 5.7 nM | B11 |

Biological target: T1, recombinant human GREM1 (hGREM1-His; …)
Test: BLI Octet, mAb captured, 100 nM GREM1;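 further: octet Red96 biolayer interferometry at 25 °C in pH 7.4 HEPES saline buffer, antibodies held on anti-human IgG Fc capture biosensors, then exposed to GREM1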

| Binding Signal with 30 sec Association | Binding Signal with 300 sec Association | Binder |
| --- | --- | --- |
| 0.24 nm | 0.42 nm | B7 |
| 0.21 nm | 0.42 nm | B8 |
| 0.2 nm | 0.39 nm | B9 |
| 0.27 nm | 0.45 nm | B10 |
| 0.2 nm | 0.4 nm | B11 |

Biological target: T1, recombinant human GREM1 (hGREM1-His; …)
Test: BLI Octet, mAb captured, 100 nM GREM1 + 5 uM heparin;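 further: octet Red96 biolayer interferometry at 25 °C, antibodies captured on anti-human IgG Fc biosensors, pH 7.4 HEPES buffer with 0.1 mg/mL BSA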
Experimental: (§1) Binding measurements were conducted using an Octet Red96 label-free biomolecular interaction instrument (ForteBio). All experiments were performed at 25° C. using plate agitation at 1000 rpm. Solutions were made in an aqueous buffer containing 10 mM HEPES, 150 mM NaCl, 3 mM EDTA 0.05% P20, 0.1 mg/mL BSA and adjusted to pH of 7.4 (HBST buffer).
(§2) Anti-Human IgG Fc Capture biosensors (ForteBio) were separately loaded with 50 μg/mL solutions of 24 different anti-GREM1 antibodies for 60 seconds. Following a 30 second wash, duplicate biosensors for each antibody were submerged into wells containing either 100 nM GREM1 solutions or 100 nM GREM1 solutions containing 5 μM of heparin, measuring association for 300 seconds.

| Binding Signal with 30 sec Association | Binding Signal with 300 sec Association | Binder |
| --- | --- | --- |
| 0.07 nm | 0.37 nm | B7 |
| 0.04 nm | 0.37 nm | B8 |
| 0.05 nm | 0.33 nm | B9 |
| 0.03 nm | 0.36 nm | B10 |
| 0.07 nm | 0.38 nm | B11 |

Biological target: T2, human GREM1 (hGREM1-His; SEQ ID NO: 595)
Test: SPR, Biacore T200, 25 C, mAb captured, hGREM1-His injected;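 further: Heparin-supplemented HBS-EP+ used as running buffer, association and dissociation phases followed, Kd computed as koff divided by kon and half-life derived from koff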

| Kd | koff | kon | t1/2 | Binder | binding result |
| --- | --- | --- | --- | --- | --- |
| 130 nM | 0.001 s⁻¹ | 10000 M⁻¹ s⁻¹ | 11.6 min | B2 |  |
| 0.669 nM | 6.51e-05 s⁻¹ | 97400 M⁻¹ s⁻¹ | 177 min | B7 |  |
| 1.54 nM | 7.73e-05 s⁻¹ | 50300 M⁻¹ s⁻¹ | 149 min | B8 |  |
| 4.08 nM | 0.000175 s⁻¹ | 42900 M⁻¹ s⁻¹ | 66 min | B9 |  |
| 23.1 nM | 0.000652 s⁻¹ | 28200 M⁻¹ s⁻¹ | 18 min | B10 |  |
| 1.19 nM | 0.000107 s⁻¹ | 90000 M⁻¹ s⁻¹ | 108 min | B11 |  |
| 270 nM | 0.002 s⁻¹ | 8000 M⁻¹ s⁻¹ | 5.8 min | B3 |  |
| 60 nM | 0.0012 s⁻¹ | 20000 M⁻¹ s⁻¹ | 9.6 min | B4 |  |
| 15 nM | 0.0013 s⁻¹ | 80000 M⁻¹ s⁻¹ | 8.9 min | B5 |  |
|  |  |  |  | B6 | no binding (tested: 11 to 100 nM hGREM1-His injected) |

Biological target: T2, human GREM1 (hGREM1-His; SEQ ID NO: 595)
Test: SPR, Biacore T200, 37 C, mAb captured, hGREM1-His injected;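 further: HBS-EP running buffer containing heparin, association and dissociation phases tracked, KD computed as koff over kon and half-life derived from koff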
Experimental: Kinetic experiments were carried out using HBS-EP+heparin [10 mM HEPES, 150 mM NaCl, 3 mM EDTA, 0.05% (v/v) surfactant P20, 10 μg/ml heparin sodium salt, pH 7.4] as both the running buffer and the sample buffer. […] Antigen-antibody association was monitored for 150 seconds while dissociation in buffer was monitored for 420 seconds. Kinetic analysis was performed using Scrubber software version 2.0a or Biacore T200 evaluation software v1.0 to determine kₐ and kd values. KD and t_{1/2} were then calculated from the experimentally determined kₐ and kd values as KD=kd/kₐ and t_{1/2}=In(2)/kd.

| Kd | koff | kon | t1/2 | Binder |
| --- | --- | --- | --- | --- |
| 1.71 nM | 0.000285 s⁻¹ | 166000 M⁻¹ s⁻¹ | 41 min | B7 |
| 5.69 nM | 0.000487 s⁻¹ | 85500 M⁻¹ s⁻¹ | 24 min | B8 |
| 6.79 nM | 0.00065 s⁻¹ | 95800 M⁻¹ s⁻¹ | 18 min | B9 |
| 275 nM | 0.00694 s⁻¹ | 25300 M⁻¹ s⁻¹ | 2 min | B10 |
| 4.08 nM | 0.000466 s⁻¹ | 114000 M⁻¹ s⁻¹ | 25 min | B11 |

Biological target: T1, recombinant human GREM1 (hGREM1-His; …)
Test: BLI Octet, mAb captured, 100 nM GREM1 without vs with 5 uM heparin;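 further: octet Red96 biolayer interferometry at 25 °C, antibodies captured on anti-human IgG Fc biosensors, association of GREM1 measured with versus without heparin in HEPES-buffered saline, pH 7.4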
Experimental: as §1, §2

| Reduction in Signal from Heparin at 30 sec | Reduction in Signal from Heparin at 300 sec | Binder |
| --- | --- | --- |
| 0.17 nm | 0.05 nm | B7 |
| 0.17 nm | 0.05 nm | B8 |
| 0.15 nm | 0.06 nm | B9 |
| 0.24 nm | 0.09 nm | B10 |
| 0.13 nm | 0.02 nm | B11 |

Biological target: T2, human GREM1 (hGREM1-His; SEQ ID NO: 595)
Test: competition ELISA, biotin-hGREM1-His (100 pM) binding to coated hBMP4
Experimental: Data were analyzed using a sigmoidal dose-response model within Prism™ software. […] The absorbance values of the wells containing the highest concentration for each antibody were used to determine the percent maximum blocking.

| % blocked at maximum Ab tested (20 nM) | IC50 | Binder |
| --- | --- | --- |
| 87% | < 0.025 nM | B7 |
| 62% | 0.21 nM | B8 |
| 62% | 1.9 nM | B9 |
| 62% | 0.11 nM | B10 |
| 75% | 0.087 nM | B11 |
